Test results taken from PMC8671467, “A novel Bacillus ligniniphilus catechol 2,3-dioxygenase shows unique substrate preference and metal requirement” (Scientific Reports, 2021).

What was measured:
Cc1cccc(O)c1O = experiment: purified protein; conditions: 0.1 M Tris-HCl pH 7.4, 0.1 mM MnCl2, 32.5 °C, 40 µg/mL enzyme, 0.2-1.2 mM substrate
CCc1cccc(O)c1O = experiment: purified protein; conditions: 0.1 M Tris-HCl pH 7.4, 0.1 mM MnCl2, 32.5 °C, 20 µg/mL enzyme, 0.05-1.0 mM substrate

## BLC23O (Halalkalibacterium ligniniphilum)
Cc1cccc(O)c1O
  Km: 418 ± 25 µM
  kcat: 0.2 ± 0.03 s⁻¹
  kcat/Km: 480 M⁻¹ s⁻¹
CCc1cccc(O)c1O
  Km: 193 ± 17 µM
  kcat: 0.47 ± 0.09 s⁻¹
  kcat/Km: 2400 M⁻¹ s⁻¹
